Measured values reported in patent publication US20190071480A1 (Biogen, published 2019).

Experiments:
[1] = molecular target: T1, extracellular domain of activin receptor type IIB (ActRIIBecd), biotinylated (Homo sapiens (Human), UniProt Q13705 27-117, amino-biotinylated with amine-PEG3-Biotin); test: BIAcore SPR, biotinylated ActRIIBecd on chip; SD ±16.78 nM
T1 construct: immobilised on a streptavidin-coated sensor chip; also called biotinylated ActRIIBecd; extracellular domain of ActRIIB
T1 sequence: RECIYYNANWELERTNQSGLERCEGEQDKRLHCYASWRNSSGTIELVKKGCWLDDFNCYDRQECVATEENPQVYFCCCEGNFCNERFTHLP
Experimental: (§1) Biosensor experiments. In one embodiment, experiments were performed on a BIAcore™ T100/T200 instrument (Pharmacia Biosensor AB) in the multichannel mode (serial flow path involving flow cells 1+2+3+4). Flow rate was 10 μl/min; temperature was 25° C.; and data were recorded at 2.5 points/s. All four segments of a sensor chip CMS were coated with streptavidin (Sigma) to a density of 2000 pg/mm² (2000 resonance units) by the aminocoupling procedure. ActRIIBecd (10 mg) and amine-PEG3-Biotin (10 mg, Pierce, Rockford, Ill.) were dissolved in 200 μl H₂O and 10 mg NaCNBH₃ was added to prepare biotinylated ActRIIBecd. The reaction mixture was heated at 70° C. for 24 h, after that a further 10 mg NaCNBH₃ was added and the reaction was heated at 70° C. for another 24 h. After cooling to room temperature, the mixture was desalted with the spin column (3,000 molecular weight cut off (MWCO)). […] Sensograms were recorded during flow of the analyte (the ActRIIBecd-associated polypeptides (i.e., domains) as previously described) first through flow cell 1 (control) then through flow cell 2 (biotinylated ActRIIBecd). […] The sensograms obtained at 1.11, 3.33, 10, 30, and 90 nM analyte were evaluated for equilibrium binding, association rate, and dissociation rate by using the programs supplied with the instrument (BIA evaluation 2.1; Software Handbook. 1995; Pharmacia Biosensor AB).

[2] = molecular target: T1, extracellular domain of activin …; test: BIAcore SPR as Example 5 (method not restated); SD ±1.59 nM
Experimental: as §1

[3] = molecular target: T1, extracellular domain of activin …; test: Mean KD column of Table 5; method not restated (BIAcore as Example 5); species also listed in Table 4
Summary of the method: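 Equilibrium binding plus on- and off-rates came from reference-subtracted sensograms of five analyte concentrations (1.11, 3.33, 10, 30, 90 nM). The receptor domain, amine-linked to biotin, sat on a streptavidin chip at a density of 50-250 RU. Flow was 10 μl/min at 25° C.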

[4] = molecular target: T1, extracellular domain of activin …; test: BIAcore SPR as Example 5 (method not restated); SD ±1.84 nM
Experimental: as §1

[5] = molecular target: T1, extracellular domain of activin …; test: BIAcore SPR as Example 5 (method not restated); SD ±2.36 nM
Experimental: as §1

[6] = molecular target: T1, extracellular domain of activin …; test: BIAcore SPR as Example 5 (method not restated); SD ±1.94 nM
Experimental: as §1

[7] = molecular target: T1, extracellular domain of activin …; test: BIAcore SPR as Example 5 (method not restated); SD ±1.11 nM
Experimental: as §1

[8] = molecular target: T1, extracellular domain of activin …; test: BIAcore SPR as Example 5 (method not restated); SD ±1.17 nM
Experimental: as §1

[9] = molecular target: T1, extracellular domain of activin …; test: BIAcore SPR as Example 5 (method not restated); SD ±1.95 nM
Experimental: as §1

[10] = molecular target: T1, extracellular domain of activin …; test: BIAcore SPR as Example 5 (method not restated); SD ±2.63 nM
Experimental: as §1

[11] = molecular target: T1, extracellular domain of activin …; test: BIAcore SPR, biotinylated ActRIIBecd on chip; SD ±11.88 nM
Experimental: as §1

[12] = molecular target: T1, extracellular domain of activin …; test: BIAcore SPR, biotinylated ActRIIBecd on chip; SD ±13.69 nM
[13] = molecular target: T1, extracellular domain of activin …; test: BIAcore SPR, biotinylated ActRIIBecd on chip; SD ±18.52 nM
Experimental: as §1

[14] = molecular target: T1, extracellular domain of activin …; test: BIAcore SPR as Example 5 (method not restated); SD ±1.04 nM
Experimental: as §1

[15] = molecular target: T1, extracellular domain of activin …; test: BIAcore SPR as Example 5 (method not restated); SD ±1.18 nM
Experimental: as §1

[16] = molecular target: T1, extracellular domain of activin …; test: BIAcore SPR as Example 5 (method not restated); SD ±3.33 nM
Experimental: as §1

[17] = molecular target: T1, extracellular domain of activin …; test: BIAcore SPR as Example 5 (method not restated); SD ±1.45 nM
Experimental: as §1

[18] = molecular target: T1, extracellular domain of activin …; test: BIAcore SPR as Example 5 (method not restated); SD ±1.92 nM
Experimental: as §1

Binder: VDFSDVGWNDHAVAPPGYHAFYCHGECPFPLADHLNSTNHAIVQTLVNSV [Clone No. 18 domain (ActRIIBecd-associated polypeptide)]
- Kd [1]: 64.1 nM

B1: SEQ ID NO: 324, cysteine pairs C15-C15^b, C79-C114^a, C80-C112^a, C44-C48^a (designed binder)
chain: AQAKHKQRKRLKSSCKRHPLYVDFKDVGWNDHAVAPPGYHAFYCHGECPFPLADHLNSDNHAIVQTKVNSVNSKIPKACCVPTELSAISMLYLDENEKVVLKNYQDMVVEGCGCR
modifications: disulfides C15-C15 (inter), C79-C114 (intra), C80-C112 (intra), C44-C48 (intra)
notes: homodimer by intermolecular disulfide
- Kd [2]: 8.42 nM
- Kd [3]: 8.42 nM

B2: SEQ ID NO: 332, cysteine pairs C15-C15^b, C80-C112^a, C79-C114^a, C44-C48^a (designed binder)
chain: GQAKRKGYKRLKSSCKRHPLYVDFSDVGWNDWIVAPPGYHAFYCHGECPFPLADHLNSTNHAIVQTLVNSVNSKDPKACCVPTELSAPSPLYLDENEKPVLKNYQDMVVHGCGCR
modifications: disulfides C15-C15 (inter), C80-C112 (intra), C79-C114 (intra), C44-C48 (intra)
notes: as for B1
- Kd [4]: 7.18 nM
- Kd [3]: 7.18 nM

B3: SEQ ID NO: 332, cysteine pairs C79-C80^a (designed binder)
chain: GQAKRKGYKRLKSSCKRHPLYVDFSDVGWNDWIVAPPGYHAFYCHGECPFPLADHLNSTNHAIVQTLVNSVNSKDPKACCVPTELSAPSPLYLDENEKPVLKNYQDMVVHGCGCR
modifications: disulfides C79-C80 (intra)
- Kd [5]: 28.5 nM
- Kd [3]: 28.5 nM

B4: SEQ ID NO: 332, cysteine pairs C15-C15^b, C80-C114^b, C79-C112^b, C44-C48^a (designed binder)
chain: GQAKRKGYKRLKSSCKRHPLYVDFSDVGWNDWIVAPPGYHAFYCHGECPFPLADHLNSTNHAIVQTLVNSVNSKDPKACCVPTELSAPSPLYLDENEKPVLKNYQDMVVHGCGCR
modifications: disulfides C15-C15 (inter), C80-C114 (inter), C79-C112 (inter), C44-C48 (intra)
notes: as for B1
- Kd [6]: 7.42 nM
- Kd [3]: 7.42 nM

B5: SEQ ID NO: 332, cysteine pairs C15-C15^b, C80-C114^a, C79-C112^a, C44-C48^a (designed binder)
chain: GQAKRKGYKRLKSSCKRHPLYVDFSDVGWNDWIVAPPGYHAFYCHGECPFPLADHLNSTNHAIVQTLVNSVNSKDPKACCVPTELSAPSPLYLDENEKPVLKNYQDMVVHGCGCR
modifications: disulfides C15-C15 (inter), C80-C114 (intra), C79-C112 (intra), C44-C48 (intra)
notes: as for B1
- Kd [7]: 5.98 nM
- Kd [3]: 5.98 nM

B6: SEQ ID NO: 340, cysteine pairs C15-C15^b, C29-C62^a, C30-C64^a, C88-C92^a (designed binder)
chain: AQAKHKQRKRLKSSCKRHPLYNSKDPKACCVPTELSAPSPLYLDENEKPVLKNYQDMVVHGCGCRVDFKDVGWNDHAVAPPGYHAFYCHGECPFPLADHLNSDNHAIVQTKVNSV
modifications: disulfides C15-C15 (inter), C29-C62 (intra), C30-C64 (intra), C88-C92 (intra)
notes: as for B1
- Kd [8]: 5.77 nM
- Kd [3]: 5.77 nM

B7: SEQ ID NO: 340, cysteine pairs C15-C15^b, C29-C64^a, C30-C62^a, C88-C92^a (designed binder)
chain: AQAKHKQRKRLKSSCKRHPLYNSKDPKACCVPTELSAPSPLYLDENEKPVLKNYQDMVVHGCGCRVDFKDVGWNDHAVAPPGYHAFYCHGECPFPLADHLNSDNHAIVQTKVNSV
modifications: disulfides C15-C15 (inter), C29-C64 (intra), C30-C62 (intra), C88-C92 (intra)
notes: as for B1
- Kd [9]: 7.19 nM
- Kd [3]: 7.19 nM

B8: SEQ ID NO: 340, cysteine pairs C15-C29^a (designed binder)
chain: AQAKHKQRKRLKSSCKRHPLYNSKDPKACCVPTELSAPSPLYLDENEKPVLKNYQDMVVHGCGCRVDFKDVGWNDHAVAPPGYHAFYCHGECPFPLADHLNSDNHAIVQTKVNSV
modifications: disulfides C15-C29 (intra)
- Kd [10]: 30.1 nM
- Kd [3]: 30.1 nM

Binder: NSKIPKACCVPTELSAISMLYLDENEKVVLKNYQDMVVEGCGCR [Clone No. 21 domain (ActRIIBecd-associated polypeptide)]
- Kd [11]: 37.1 nM

Binder: NSKDPKACCVPTELSAPSPLYLDENEKPVLKNYQDMVVHGCGCR [Clone No. 19 domain (ActRIIBecd-associated polypeptide)]
- Kd [12]: 40.1 nM

Binder: NSKIPKACCVPTELSAISPLYLDENEKVVLKNYQDMVVHGCGCR [Clone No. 22 domain (ActRIIBecd-associated polypeptide)]
- Kd [13]: 51.7 nM

B9: SEQ ID NO: 316, cysteine pairs C67-C71^a, C8-C43^a, C9-C41^a, C109-C109^b (designed binder)
chain: NSKDPKACCVPTELSAPSPLYLDENEKPVLKNYQDMVVHGCGCRVDFKDVGWNDHAVAPPGYHAFYCHGECPFPLADHLNSDNHAIVQTKVNSVGQAKRKGYKRLKSSCKRHPLY
modifications: disulfides C67-C71 (intra), C8-C43 (intra), C9-C41 (intra), C109-C109 (inter)
notes: as for B1
- Kd [14]: 6.17 nM
- Kd [3]: 6.17 nM

B10: SEQ ID NO: 316, cysteine pairs C67-C71^a, C8-C43^b, C9-C41^b, C109-C109^b (designed binder)
chain: NSKDPKACCVPTELSAPSPLYLDENEKPVLKNYQDMVVHGCGCRVDFKDVGWNDHAVAPPGYHAFYCHGECPFPLADHLNSDNHAIVQTKVNSVGQAKRKGYKRLKSSCKRHPLY
modifications: disulfides C67-C71 (intra), C8-C43 (inter), C9-C41 (inter), C109-C109 (inter)
notes: as for B1
- Kd [15]: 5.78 nM
- Kd [3]: 5.78 nM

B11: SEQ ID NO: 348, cysteine pairs C29-C30^a (designed binder)
chain: GQAKRKGYKRLKSSCKRHPLYNSKIPKACCVPTELSAISMLYLDENEKVVLKNYQDMVVEGCGCRVDFSDVGWNDWIVAPPGYHAFYCHGECPFPLADHLNSTNHAIVQTLVNSV
modifications: disulfides C29-C30 (intra)
- Kd [16]: 29.1 nM
- Kd [3]: 29.1 nM

B12: SEQ ID NO: 348, cysteine pairs C15-C15^b, C29-C62^b, C30-C64^b, C88-C92^a (designed binder)
chain: GQAKRKGYKRLKSSCKRHPLYNSKIPKACCVPTELSAISMLYLDENEKVVLKNYQDMVVEGCGCRVDFSDVGWNDWIVAPPGYHAFYCHGECPFPLADHLNSTNHAIVQTLVNSV
modifications: disulfides C15-C15 (inter), C29-C62 (inter), C30-C64 (inter), C88-C92 (intra)
notes: as for B1
- Kd [17]: 6.31 nM
- Kd [3]: 6.31 nM

B13: SEQ ID NO: 348, cysteine pairs C15-C15^b, C29-C64^a, C30-C62^a, C88-C92^a (designed binder)
chain: GQAKRKGYKRLKSSCKRHPLYNSKIPKACCVPTELSAISMLYLDENEKVVLKNYQDMVVEGCGCRVDFSDVGWNDWIVAPPGYHAFYCHGECPFPLADHLNSTNHAIVQTLVNSV
modifications: disulfides C15-C15 (inter), C29-C64 (intra), C30-C62 (intra), C88-C92 (intra)
notes: as for B1
- Kd [18]: 6.77 nM
- Kd [3]: 6.77 nM
